Results taken from PMC5015938, “A Split-Ubiquitin Based Strategy Selecting for Protein Complex-Interfering Mutations” (G3: Genes|Genomes|Genetics, 2016).

What was measured:
[1] = target: T1, PB_(Cdc24)(D833G) (Saccharomyces cerevisiae, UniProt P11433 668-854, D833G); assay: SPR; Biacore X100; PB_(Bem1)-SNAP labelled with BG-Biotin and captured on a CM5 chip coated with anti-biotin antibody; PB_(Cdc24) as analyte; HBSEP (10 mM HEPES, 150 mM NaCl, 3 mM EDTA, 0.05% Tween 20, pH 7.4); settings: both partners purified
T1 construct: also called D833G mutant; source: E. coli BL21DE3, purified (IMAC, optional size exclusion chromatography)
T1 sequence (looked up): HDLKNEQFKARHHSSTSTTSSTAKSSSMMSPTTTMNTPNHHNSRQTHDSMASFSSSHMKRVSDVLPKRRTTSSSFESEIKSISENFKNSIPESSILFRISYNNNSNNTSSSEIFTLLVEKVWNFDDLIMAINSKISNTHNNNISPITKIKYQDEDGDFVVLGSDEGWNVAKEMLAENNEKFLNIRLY

[2] = target: T2, PB_(Cdc24) (Saccharomyces cerevisiae, UniProt P11433 668-854); assay: as above; settings: both partners purified
T2 construct: also called Cdc24 PB domain; source: E. coli BL21DE3, purified (IMAC, optional size exclusion chromatography)
T2 sequence (looked up): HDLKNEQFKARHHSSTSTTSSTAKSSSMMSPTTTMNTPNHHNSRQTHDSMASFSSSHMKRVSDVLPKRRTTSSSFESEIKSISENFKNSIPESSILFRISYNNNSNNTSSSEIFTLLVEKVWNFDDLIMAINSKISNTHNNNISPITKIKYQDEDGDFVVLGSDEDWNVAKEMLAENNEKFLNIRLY

B1: PB_(Bem1)-SNAP (domain or fragment, Saccharomyces cerevisiae, UniProt P29366 431-551, looked up)
chain: ASQTSNFASTNQDNTLTGEDLKLNKKLSDLSLSGSKQAPAQSTSGLKTTKIKFYYKDDIFALMLKGDTTYKELRSKIAPRIDTDNFKLQTKLFDGSGEEIKTDSQVSNIIQAKLKISVHDI
modifications: BG-Biotin covalently on the SNAP tag
notes: Bem1, S. cerevisiae, PB domain, residues 431-551; also called Bem1 PB domain; source: E. coli BL21DE3, purified (IMAC, optional size exclusion chromatography)
- Kd [1]: > 3200 nM
- Kd [2]: 21 nM
